Reference: patent USRE50631 (VELOSBIO, dated 2025)

Columns and labels:
[1] = target: T1, human receptor tyrosine kinase like orphan receptor 1 (ROR1) (human, UniProt Q01973 30-937); test: cell-based or functional assay
[2] = target: T1, human receptor tyrosine kinase like …; test: binding to Jeko cells; column 'ADC-P Binding KD (nM)', method not described
[3] = target: T1, human receptor tyrosine kinase like …; test: binding to Jeko cells; column 'ADC-Q Binding KD (nM)', method not described
[4] = target: T1, human receptor tyrosine kinase like …; test: flow cytometry on Jeko-1 cells (FIG. 3A)
[5] = target: T1, human receptor tyrosine kinase like …; test: flow cytometry on Jeko-1 cells (FIG. 3B)

T1 sequence (Q01973 30-937): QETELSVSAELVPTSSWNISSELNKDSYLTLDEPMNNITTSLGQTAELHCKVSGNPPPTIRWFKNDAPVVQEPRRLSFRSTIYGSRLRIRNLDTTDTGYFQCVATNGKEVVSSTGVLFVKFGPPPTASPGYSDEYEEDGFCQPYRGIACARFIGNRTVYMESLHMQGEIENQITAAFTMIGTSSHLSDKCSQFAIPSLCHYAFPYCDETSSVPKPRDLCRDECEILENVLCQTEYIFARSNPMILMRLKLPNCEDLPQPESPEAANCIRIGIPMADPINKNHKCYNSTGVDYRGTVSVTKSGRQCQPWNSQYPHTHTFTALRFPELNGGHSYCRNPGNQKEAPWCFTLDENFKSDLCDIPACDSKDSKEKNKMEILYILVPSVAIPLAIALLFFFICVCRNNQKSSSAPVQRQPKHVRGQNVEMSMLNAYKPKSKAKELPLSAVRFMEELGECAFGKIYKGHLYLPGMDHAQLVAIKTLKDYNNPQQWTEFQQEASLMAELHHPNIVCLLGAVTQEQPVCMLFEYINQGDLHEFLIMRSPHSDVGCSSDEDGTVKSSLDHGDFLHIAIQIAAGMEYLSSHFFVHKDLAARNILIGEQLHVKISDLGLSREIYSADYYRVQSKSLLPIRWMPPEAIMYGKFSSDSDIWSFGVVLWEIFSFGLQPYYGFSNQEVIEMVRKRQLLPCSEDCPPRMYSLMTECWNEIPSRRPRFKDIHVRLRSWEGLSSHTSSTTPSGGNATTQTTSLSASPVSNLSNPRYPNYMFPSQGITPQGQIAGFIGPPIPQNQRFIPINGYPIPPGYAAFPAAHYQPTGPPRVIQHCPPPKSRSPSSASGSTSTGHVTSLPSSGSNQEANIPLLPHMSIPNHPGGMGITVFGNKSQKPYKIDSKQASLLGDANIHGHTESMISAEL

B1: ADC-B (antibody, human IgG1, kappa, V domains shown)
VH: QVQLQESGPGLVKPSQTLSLTCTVSGYAFTAYNIHWVRQAPGQGLEWMGSFDPYDGGSSYNQKFKDRLTISKDTSKNQVVLTMTNMDPVDTATYYCARGWYYFDYWGHGTLVTVSS
VL: DIVMTQTPLSLPVTPGEPASISCRASKSISKYLAWYQQKPGQAPRLLIYSGSTLQSGIPPRFSGSGYGTDFTLTINNIESEDAAYYFCQQHDESPYTFGEGTKVEIKR
modifications: SMCC-DM1 bonded via lysine residues of the antibody (chain and positions not stated); SMCC-DM1 bonded via lysine residues of the antibody (chain and positions not stated); DAR 3.0 to 3.20
[1]
  IC50, cell viability (CellTiter-Glo, 72 h), A2008 cells: 49 nM
  IC50, cell viability (CellTiter-Glo, 72 h), Bt549 cells: 20.2 nM
  IC50, cell viability (CellTiter-Glo, 72 h), DOHH2 cells: 78.3 nM
  IC50, cell viability (CellTiter-Glo, 72 h), HBL-1 cells: 70.1 nM
  IC50, cell viability (CellTiter-Glo, 72 h), HCC1187 cells: 6.2 nM
  IC50, cell viability (CellTiter-Glo, 72 h), JHOM1 cells: 24.3 nM
  IC50, cell viability (CellTiter-Glo, 72 h), MDA-MB-468 cells: 18.8 nM
  IC50, cell viability (CellTiter-Glo, 72 h), SKOvr3 cells: 78.7 nM
  IC50, cell viability (CellTiter-Glo, 72 h), TMD-8 cells: 50 nM
  IC50, cell viability (CellTiter-Glo, 72 h), TOV112D cells: 34.2 nM

B2: ADC-P (antibody, human IgG1, kappa, V domains shown)
VH: QVQLQESGPGLVKPSQTLSLTCTVSGYAFTAYNIHWVRQAPGQGLEWMGSFDPYDGGSSYNQKFKDRLTISKDTSKNQVVLTMTNMDPVDTATYYCARGWYYFDYWGHGTLVTVSS
VL: DIVMTQTPLSLPVTPGEPASISCRASKSISKYLAWYQQKPGQAPRLLIYSGSTLQSGIPPRFSGSGYGTDFTLTINNIESEDAAYYFCQQHDESPYTFGEGTKVEIKR
modifications: MAL-Phe-C4-VC-PAB-DMEA-PNU-159682 bonded via cysteine residues of the antibody (chain and positions not stated)
notes: Antibody-drug conjugate of Ab1; also called Ab1-MAL-Phe-C4-VC-PAB-DMEA-PNU-159682
[2]
  Kd: 0.11 nM

B3: ADC-Q (antibody, human IgG1, kappa, V domains shown)
VH: QVQLQESGPGLVKPSQTLSLTCTVSGYAFTAYNIHWVRQAPGQGLEWMGSFDPYDGGSSYNQKFKDRLTISKDTSKNQVVLTMTNMDPVDTATYYCARGWYYFDYWGHGTLVTVSS
VL: DIVMTQTPLSLPVTPGEPASISCRASKSISKYLAWYQQKPGQAPRLLIYSGSTLQSGIPPRFSGSGYGTDFTLTINNIESEDAAYYFCQQHDESPYTFGEGTKVEIKR
modifications: deglycosylated with PNGase F; azido-PEG3-amine put on glutamine residues by microbial transglutaminase, then DBCO-(PEG2-VC-PAB-MMAE)2 via a triazole (chain and positions not stated); DAR 4.4
notes: also called Ab1-DBCO-(PEG2-VC-PAB-MMAE)2
[3]
  Kd: 0.23 nM

B4: ADC-C (antibody, human IgG1, kappa, V domains shown)
VH: QVQLQESGPGLVKPSQTLSLTCTVSGYAFTAYNIHWVRQAPGQGLEWMGSFDPYDGGSSYNQKFKDRLTISKDTSKNQVVLTMTNMDPVDTATYYCARGWYYFDYWGHGTLVTVSS
VL: DIVMTQTPLSLPVTPGEPASISCRASKSISKYLAWYQQKPGQAPRLLIYSGSTLQSGIPPRFSGSGYGTDFTLTINNIESEDAAYYFCQQHDESPYTFGEGTKVEIKR
modifications: MAL-VC-PAB-DM1 bonded via cysteine residues of the antibody (chain and positions not stated)
[1]
  IC50, cell viability (CellTiter-Glo, 72 h), A2008 cells: > 1000 nM
  IC50, cell viability (CellTiter-Glo, 72 h), Bt549 cells: > 1000 nM
  IC50, cell viability (CellTiter-Glo, 72 h), DOHH2 cells: > 1000 nM
  IC50, cell viability (CellTiter-Glo, 72 h), HBL-1 cells: > 1000 nM
  IC50, cell viability (CellTiter-Glo, 72 h), HCC1187 cells: > 1000 nM
  IC50, cell viability (CellTiter-Glo, 72 h), JHOM1 cells: > 1000 nM
  IC50, cell viability (CellTiter-Glo, 72 h), MDA-MB-468 cells: > 1000 nM
  IC50, cell viability (CellTiter-Glo, 72 h), SKOvr3 cells: > 1000 nM
  IC50, cell viability (CellTiter-Glo, 72 h), TMD-8 cells: > 1000 nM
  IC50, cell viability (CellTiter-Glo, 72 h), TOV112D cells: > 1000 nM

B5: 4A5 (antibody, V domains shown)
VH: EVKLVESGGGLVKPGGSLKLSCAASGFTFSSYAMSWVRQIPEKRLEWVASISRGGTTYYPDSVKGRFTISRDNVRNILYLQMSSLRSEDTAMYYCGRYDYDGYYAMDYWGQGTSVTVSS
VL: DIKMTQSPSSMYASLGERVTITCKASPDINSYLSWFQQKPGKSPKTLIYRANRLVDGVPSRFSGGGSGQDYSLTINSLEYEDMGIYYCLQYDEFPYTFGGGTKLEMK
notes: also called anti-ROR1 antibody 4A5
[4]
  EC50: 0.121 µg/mL

B6: ADC-T (antibody, V domains shown)
VH: EVKLVESGGGLVKPGGSLKLSCAASGFTFSSYAMSWVRQIPEKRLEWVASISRGGTTYYPDSVKGRFTISRDNVRNILYLQMSSLRSEDTAMYYCGRYDYDGYYAMDYWGQGTSVTVSS
VL: DIKMTQSPSSMYASLGERVTITCKASPDINSYLSWFQQKPGKSPKTLIYRANRLVDGVPSRFSGGGSGQDYSLTINSLEYEDMGIYYCLQYDEFPYTFGGGTKLEMK
modifications: MAL-VC-PAB-MMAE bonded via cysteine residues of the antibody (positions not stated)
notes: Antibody-drug conjugate of 4A5; also called 4A5-MAL-VC-PAB-MMAE
[4]
  EC50: 0.193 µg/mL

B7: D10 (antibody, V domains shown)
VH: QVQLKESGPGLVAPSQTLSITCTVSGFSLTSYGVHWVRQPPGKGLEWLGVIWAGGFTNYNSALKSRLSISKDNSKSQVLLKMTSLQTDDTAMYYCARRGSSYSMDYWGQGTSVIVSS
VL: EIVLSQSPAITAASLGQKVTITCSASSNVSYIHWYQQRSGTSPRPWIYEISKLASGVPVRFSGSGSGTSYSLTISSMEAEDAAIYYCQQWNYPLITFGSGTKLEIQ
notes: also called antibody D10
[5]
  EC50: 0.25 µg/mL

B8: ADC-S (antibody, V domains shown)
VH: QVQLKESGPGLVAPSQTLSITCTVSGFSLTSYGVHWVRQPPGKGLEWLGVIWAGGFTNYNSALKSRLSISKDNSKSQVLLKMTSLQTDDTAMYYCARRGSSYSMDYWGQGTSVIVSS
VL: EIVLSQSPAITAASLGQKVTITCSASSNVSYIHWYQQRSGTSPRPWIYEISKLASGVPVRFSGSGSGTSYSLTISSMEAEDAAIYYCQQWNYPLITFGSGTKLEIQ
modifications: MAL-VC-PAB-MMAE bonded via cysteine residues of the antibody (positions not stated)
notes: Antibody-drug conjugate of D10; also called D10-MAL-VC-PAB-MMAE
[5]
  EC50: 0.15 µg/mL
